In article PMC9291269:
Where two headings read alike, the source gives them in different places.

T1: recombinant human serum amyloid A1 (rSAA1) (human), P0DJI8
T1 chain: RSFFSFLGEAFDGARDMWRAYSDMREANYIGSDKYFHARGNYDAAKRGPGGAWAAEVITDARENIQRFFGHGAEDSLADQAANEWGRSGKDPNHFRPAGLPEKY


Columns and labels:
[1] = target: SAA1 secreted by BEAS-2B cells (lipid-free, in culture supernatant) (human (endogenous in BEAS-2B)); assay: immunoblot of HDL-depleted cell culture supernatants
[2] = target: SAA1 secreted by BEAS-2B cells (lipid-free, in culture supernatant) (human (endogenous in BEAS-2B)); assay: as above; remark: listed apart in the source
[3] = target: T1, recombinant human serum amyloid A1 …; assay: immunoblot of cell culture supernatants; conditions: remark: other sources report otherwise
[4] = target: T1, recombinant human serum amyloid A1 …; assay: immunoblot of cell culture supernatants; conditions: remark: other sources report otherwise

Row | Molecule | stoichiometry N [1] | stoichiometry N [2] | stoichiometry N [3] | stoichiometry N [4]
1 | SAA1 secreted by BEAS-2B cells (lipid-free, in culture supernatant) (natural protein) | 2 | 6 |  | 
2 | recombinant human serum amyloid A1 (rSAA1), P0DJI8 19-122 (natural protein) RSFFSFLGEAFDGARDMWRAYSDMREANYIGSDKYFHARGNYDAAKRGPGGAWAAEVITDARENIQRFFGHGAEDSLADQAANEWGRSGKDPNHFRPAGLPEKY |  |  | 6 | 2
